Data as given in patent US20260028391A1 (HUMABS BIOMED, published 2026).
Numbering of substitutions follows the chain as printed. Names and notes keep the numbering of the source.

Columns and labels:
[1] = target: RSV B 9719/09 fusion glycoprotein (F) (RSV B, strain 9719/09); assay: cell-based or functional assay
[2] = target: RSV B1 BPR-348-00 (BEI NR-4052) fusion glycoprotein (F) (RSV B, strain B1, UniProt O36634 26-574); assay: cell-based or functional assay
[3] = target: RSV A Randall fusion glycoprotein (F) (RSV A, strain Randall); assay: cell-based or functional assay
[4] = target: RSV A2 BPR-344-00 (BEI NR-12149) fusion glycoprotein (F) (RSV A, strain A2, UniProt P03420 26-574); assay: cell-based or functional assay
[5] = target: RSV A2 VR 1540 fusion glycoprotein (F) (RSV A, strain A2 (VR 1540), UniProt P03420 26-574); assay: cell-based or functional assay
[6] = target: RSV A2 (screening GFP strain) fusion glycoprotein (F) (RSV A); assay: cell-based or functional assay
[7] = target: RSV A 2001/3-12 fusion glycoprotein (F) (RSV A, strain A 2001/3-12); assay: cell-based or functional assay
[8] = target: RSV B (screening GFP strain) fusion glycoprotein (F) (RSV B); assay: cell-based or functional assay
[9] = target: RSV A 2000/3-4 fusion glycoprotein (F) (RSV A, strain A 2000/3-4); assay: cell-based or functional assay
[10] = target: RSV A1997/12-35 fusion glycoprotein (F) (RSV A, strain A1997/12-35); assay: cell-based or functional assay
[11] = target: RSV Ds Red 5 fusion glycoprotein (F) (RSV, strain printed as Ds Red 5); assay: cell-based or functional assay
[12] = target: RSV A1998/3-2 fusion glycoprotein (F) (RSV A, strain A1998/3-2); assay: cell-based or functional assay
RSV-B F = target: T1, RSV-B F (RSV B); assay: affinity; method not given
T1 construct: also called RSV F B

RSV-A F = target: T2, RSV-A F (RSV A); assay: affinity; method not given
T2 construct: also called RSV F A

[13] = target: T3, RSV fusion glycoprotein (RSV-F), pre-fusion conformation, recombinant protein loaded on sensors (respiratory syncytial virus (RSV), …); assay: ELISA-type titration, OD 405 nm, on Pre-F
T3 construct: also called RSV-F wt; RSV-F protein

[14] = target: post-fusion RSV F protein (respiratory syncytial virus (RSV), …); assay: ELISA-type titration, OD 405 nm, on Post-F
DS-Cav1 RSV F = DS-Cav1 RSV F (respiratory syncytial virus (RSV); …, UniProt P13843 26-513); assay: ELISA on RSV-F Ds-Cav1, 1 ug/ml
RSV F B S443P = target: T4, RSV F B S443P (RSV B); assay: FACS, % binding to RSV F B variants
T4 construct: whole, on cells; also called mutant S443P

RSV F B N208S = target: T5, RSV F B N208S (RSV B); assay: FACS, % binding to RSV F B variants
T5 construct: whole, on cells; also called mutant N208S

RSV F B N201S = target: T6, RSV F B N201S (RSV B); assay: FACS, % binding to RSV F B variants
T6 construct: whole, on cells

RSV F B K68N-N208S = target: T7, RSV F B K68N-N208S (RSV B); assay: FACS, % binding to RSV F B variants
T7 construct: whole, on cells

RSV F B N208D = target: T8, RSV F B N208D (RSV B); assay: FACS, % binding to RSV F B variants
T8 construct: whole, on cells

RSV F B, B Ref = target: T9, RSV F B, B Ref (RSV B); assay: FACS, % binding to RSV F B variants
T9 construct: whole, on cells

RSV F B K68N-N201S = target: T10, RSV F B K68N-N201S (RSV B); assay: FACS, % binding to RSV F B variants
T10 construct: whole, on cells

[15] = target: RSV A fusion glycoprotein (F), virus of the neutralisation assays of Tables 54 and 57 (RSV A); assay: cell-based or functional assay
[16] = target: RSV-long strain fusion glycoprotein (F) (RSV, long strain, UniProt P12568 26-574); assay: cell-based or functional assay
[17] = target: RSV-B B18537/62 F protein (RSV B, strain B18537/62, UniProt P13843 26-574); assay: cell-based or functional assay
RSV-B B9320 F protein = RSV-B B9320 F protein (RSV B, strain B9320); assay: cell-based or functional assay
[18] = target: T11, MPV F D280N mutant expressed on Expi293F transfected cells (metapneumovirus (MPV), strain ); assay: FACS on Expi293F cells transfected with MPV-F D280N; mouse serum taken 56 d after injection
T11 construct: whole, on cells; also called MPV D280N F; D280N F

[19] = target: T11, MPV F D280N mutant expressed on …; assay: FACS on Expi293F cells transfected with MPV-F D280N; mouse serum taken 2 h after injection
biot-RSV-F wt [20] = target: T12, biot-RSV-F wt (respiratory syncytial virus (RSV)); assay: BLI, SA sensor loaded with biot-RSV-F wt, mAb 5 ug/ml, 4 min association, 6 min dissociation
[21] = target: RSV F expressed on transfected Expi293F cells (respiratory syncytial virus (RSV)); assay: flow cytometry, transfected Expi293F cells, fixed and permeabilised
[22] = target: fusion glycoprotein (F) of RSV A GFP (Tables 41 and 42) (respiratory syncytial virus A); assay: cell-based or functional assay
[23] = target: fusion glycoprotein (F) of RSV B GFP (Tables 41 and 42) (respiratory syncytial virus B); assay: cell-based or functional assay
[24] = target: fusion glycoprotein (F) of MPV A GFP (Tables 41 and 43) (metapneumovirus A); assay: cell-based or functional assay
biot-RSV-F wt [25] = target: T12, biot-RSV-F wt; assay: BLI (Octet), biotinylated F on SA sensors, mAb 5 µg/ml

B1: MPK65-v2-rIgG1-LS (antibody, V domains shown)
VH: QVPLVQSGAEVKKPGESLKISCKGSGYSFINYWIGWVRQMPGKGLEWMGVIYPFDSDTKYSPSFQGHVTISADKSSNTAYVQWSSLKASDTAMYYCARFTFGIAVVTDDVSGEGQAFEIWGQGTMVTVSS
VL: EIVMMQSPATLSVSPGERATLSCRASQSVAGNLAWYQQRPGQAPRLLIYGASTRATGVPARFSGSGSETEFTLTISSLQSEDFAVYYCHQYSNWPQAFGQGTRLDIK
notes: Recombinant human IgG1 with M428L/N434S (LS)
IC50, virus neutralization [1]: 0.741 ng/mL | IC50, virus neutralization [2]: 0.4 ng/mL | IC50, virus neutralization [3]: 1.7 ng/mL | IC50, virus neutralization [4]: 0.5 ng/mL | IC50, virus neutralization [5]: 0.95 ng/mL | IC50, virus neutralization [6]: 0.955 ng/mL | IC50, virus neutralization [7]: 0.59 ng/mL | IC50, virus neutralization [8]: 0.607 ng/mL | IC50, virus neutralization [9]: 0.74 ng/mL | IC50, virus neutralization [10]: 0.56 ng/mL | IC50, virus neutralization [11]: 0.47 ng/mL | IC50, virus neutralization [12]: 0.17 ng/mL | Kd (RSV-B F): 0.404 nM

B2: MPK201-rIgG1-LS (antibody, V domains shown)
VH: EVQLVQSGAEVKKPGESLKISCQGSGYSFINYWIGWVRQKPGKGLEWMGIIYPFDSETKYSPSFQGHVTFSADKSINTAYVQWSSLRASDTAMYYCARFTFGLAVTTADVSGEGQAFEIWGQGTMVTVSS
VL: B1 VL with I48V, T56S, Q90H, N93D
notes: as for B1
IC50, virus neutralization [5]: 1.53 ng/mL | IC50, virus neutralization [6]: 2.83 ng/mL | IC50, virus neutralization [7]: 1.77 ng/mL | IC50, virus neutralization [8]: 1.49 ng/mL | IC50, virus neutralization [9]: 1.26 ng/mL | IC50, virus neutralization [10]: 2.33 ng/mL | IC50, virus neutralization [11]: 1.23 ng/mL | IC50, virus neutralization [12]: 3.01 ng/mL | Kd (RSV-B F): 0.001 nM | Kd (RSV-A F): 0.001 nM

B3: MPK176-rIgG1-LS (antibody, V domains shown)
VH: QVQLVQSGAEVKKPGASVRVSCKASGYTLTAYGISWVRQAPGQGLEWMGWISPKHGNTHYAQRFQGRVTMTTDTSTSTAYMELRSLRPDDTAVYFCAREGVDIMAVPWYFDYWGQGTLVAVSS
VL: SYELTQPPSVSVAPGQTARISCGGNNIGSKSVHWYQQKPGQAPVVVVYDDSDRPSGIPERFSGSNSGNTATLTISGVEAGDEADYFCQVWDSATDHWVFGGGTKLTVL
notes: as for B1
IC50, virus neutralization [5]: 2.87 ng/mL | IC50, virus neutralization [6]: 4.15 ng/mL | IC50, virus neutralization [7]: 2.12 ng/mL | IC50, virus neutralization [8]: 2.19 ng/mL | IC50, virus neutralization [9]: 2.3 ng/mL | IC50, virus neutralization [10]: 2.08 ng/mL | IC50, virus neutralization [11]: 1.06 ng/mL | IC50, virus neutralization [12]: 2.45 ng/mL | Kd (RSV-B F): 0.001 nM | Kd (RSV-A F): 0.0591 nM

B4: MPH12 (antibody, V domains shown)
VH: QVQLVESGGGLVKPGGSLRLSCVASGFTFSGFYMKWIRQAPGKGLEWVSSISASGSYTNYADSVEGRFTVSRDNAKNSLFLLMSSLRAEDTAVYYCARGDSYCGASACHGEFFHKWGQGTLVTVSS
VL: QSVLTQPPSVSGAPGQRVTISCTGSDSNIGADFDVHWYQQLPGTAPKLLIYGNINRPSGVPDRFSGSRSGTSAFLAITRLQAEDEADYYCQSYDRSLHYVFGAGTKVTVL
notes: also called MPH12-rIgG1; MPH12-rIgG1-LS
EC50 (read off the curve) [13]: ~10 ng/mL | EC50 (read off the curve) [14]: ~30 ng/mL | EC50 (read off the curve) (DS-Cav1 RSV F): ~2 ng/mL

B5: MPK190-v1.3-rIgG1m17,1-LS (antibody, V domains shown)
VH: QVQLVESGGGLVKPGGSLTLSCAASGFSISGYGMNWVRQAPGRGLEWVASISASSTYIYYADSMKGRFTISRDNGKTSLYLQMKSLRAEDTAVYYCARAPIEPPYFDLWGRGTLVTVSS
VL: QSVLTQPPSVSGAPGQRVTISCTGSSSNIGAGYDVHWYQHLPGKAPKVLIYGNTNRPSVVPDRFSGSNSGASASLAISGLQAEDEADYFCQSYDRRLSGPIFGGGTKLTVLG
% binding (RSV F B S443P): 66.7% | % binding (RSV F B N208S): 63.4% | % binding (RSV F B N201S): 63.1% | % binding (RSV F B K68N-N208S): 61.5% | % binding (RSV F B N208D): 60.5% | % binding (RSV F B, B Ref): 72.1% | % binding (RSV F B K68N-N201S): 63.3% | IC50, neutralization of RSVA [15]: 15.3 ng/mL | EC50, virus neutralization (Fab testing) [16]: 0.105 nM | EC50, virus neutralization (Fab testing) [17]: 0.0247 nM | EC50, virus neutralization (Fab testing) (RSV-B B9320 F protein): 0.017 nM

B6: MPK190 (antibody, V domains shown)
VH: B5 VH with Q1E
VL: QSVLTQPPSVSGAPGQRVTISCTGSNSNIGAGYDVHWYQHLPGKAPKVLIYGNNNRPSVVPDRFSGSNSGASASLAISGLQAEDEADYFCQSYDRRLSGPIFGGGTKLTVL
notes: Tested as MPK190-rIgG1-LS (IgG1 with M428L/N434S); also called MPK190-rIgG1-LS; MPK190-rIgG1-LS(4B6)
EC50 [18]: 84 ng/mL | EC50 [19]: 62 ng/mL

B7: MPK104-v1.3-rIgG1m17,1-LS (antibody, V domains shown)
VH: QVQLVESGGGLVKPGGSLRLSCAASGFTIDGYGMNWVRQAPGKGLEWVSSISASSNYIYYADSMKGRFTISRDNGKNSLYLQMHSLRVEDTGVYYCARAPLEPPYFDLWGRGTLVTVSS
VL: QSVLTQPPSVSGAPGQRVTISCSGGSSNIGAGYDVHWYQQVPGKGPKVLIYGNTNRPSGVPDRFSGSNFGASASLAITGLQAEDEADYFCQSYDRRLGGPVFGGGTKLTVL
notes: also called MPK104-v1.3-rIgG1-LS
Kd (biot-RSV-F wt [20]): 0.0924 nM | Binding (FACS) relative to parental mAb MPK104-v1.1 [21]: 1.1 | IC50 (ng/ml), RSV A GFP neutralization [22]: 2.71 ng/mL | IC50 (ng/ml), RSV B GFP neutralization [23]: 6.49 ng/mL | IC50 (ng/ml), MPV A GFP neutralization [24]: 5.57 ng/mL | Kd (biot-RSV-F wt [25]): 0.209 nM

B8: MPK104-v1.1-rIgG1m17,1-LS (antibody, V domains shown)
VH: B7 VH
VL: B7 VL with T54N, E83D
notes: called the parental mAb (v1.1)
Kd (biot-RSV-F wt [20]): 0.0649 nM | Binding (FACS) relative to parental mAb MPK104-v1.1 [21]: 1
